For the data set, the system named is Rap1 (Naumovozyma castellii). The experiment in a line: competition EMSA. To be noted: labeled N1 probe, 10 mM Tris-HCl pH 7.5, 7 mM MgCl2, 8% glycerol, 10 fmol probe in 15 µl, ~0.6 µg Rap1 extract, 1.5 µg non-specific competitor (E. coli DNA, salmon sperm DNA …); for binding signal: 400x competitor, scale: fold shifted probe remaining vs telomeric competitor.

In the case of “AAGATTTGTATAGTCTGGGTAATGTATGTCAT (double strand) [ST-3]”, the binding signal turned out to be 91.
The same measure, in the same setting: to “AAGGATAGTTGGTCTGGGTGAGGATATTCTGTT (double strand) [ST-1]” belongs 60.
In the case of “GTCTGGGTGTCTGGGTGTC (double strand) [telomeric ds-probe (19 bp)]”, the binding signal (fold shifted probe remaining (reference)) (unlabeled N1 as competitor) is 1.
Turning to “GTGTCGTTAGGTACGGAGGGTGTTGTTTGGAATATG (double strand) [ST-4]”, the binding signal was determined as 33.
The same measure, in the same setting: to “TGTTGTTGATGGTGGTGTTGTTTTTTTGTC (double strand) [ST-2]” belongs 66.

For the origin of these results see PMC12408736.
